Data: publication doi:10.1101/2022.09.15.508177

Experiments:
[1] = molecular target: CTCF(Y226A/F228A) (human) (UniProt P49711); experiment: single-molecule co-localisation on DNA curtains
[2] = molecular target: CTCF truncation mutant that only includes the 11 Zn-fingers (human); experiment: single-molecule co-localisation on DNA curtains
[3] = molecular target: CTCF (CCCTC-binding factor), full-length, wild type, C-terminal MBP-Flag tag (human) (UniProt P49711)
[4] = molecular target: CTCF (CCCTC-binding factor), full-length, wild type, C-terminal MBP-Flag tag (human) (UniProt P49711); experiment: single-molecule co-localisation on DNA curtains

Chain of CTCF truncation mutant that only includes the 11 Zn-fingers (human) (P49711 266-577, stated change not applied): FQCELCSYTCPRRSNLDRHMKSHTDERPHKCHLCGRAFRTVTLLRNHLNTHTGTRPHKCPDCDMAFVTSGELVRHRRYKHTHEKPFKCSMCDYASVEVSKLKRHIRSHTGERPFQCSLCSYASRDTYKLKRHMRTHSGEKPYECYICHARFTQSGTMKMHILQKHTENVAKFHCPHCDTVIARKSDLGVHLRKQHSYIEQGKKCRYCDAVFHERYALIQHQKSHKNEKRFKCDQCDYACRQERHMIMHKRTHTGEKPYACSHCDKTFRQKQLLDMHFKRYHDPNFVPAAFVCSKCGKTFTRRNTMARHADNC

Substance | percent co-localised [1] | percent co-localised [2] | cohesin velocity after non-permissive (CTCF^N) collision [3] | cohesin velocity after permissive (CTCF^C) collision [3] | percent of CTCF^N foci that retained cohesin [4]
cohesin-NIPBL^C (SMC1, SMC3, RAD21, STAG1 with NIPBL^C), wild type (from UniProt Q14683;Q9UQE7;O60216;Q8WVM7;Q6KC79) (complex) | < 50% | < 50% | 0.2 bp s^-1 | 1.42 bp s^-1 | –
cohesin-NIPBL^C with STAG1(W337A/F347A) (from UniProt Q14683;Q9UQE7;O60216;Q8WVM7;Q6KC79) (complex) | – | – | – | – | 47%
